Experimental data as given in the RNAGym collection of RNA variant scans (doi:10.1073/pnas.2313332121).
Variants at the floor of the assay were thinned out.

B1: TPR 5TU (parent)
chain: GGAUCUUCUCGAUCUAACAAAAAAGACAAAUCUGCCACAAAGCUUGAGAGCAUCUUCGGAUGCAGAGGCGGCAGCCUUCGGUGGCGCGAUAGCGCCAACGUUCUCAACUAUGACACGCAAAACGCGUGCUCCGUUGAAUGGAGUUUAUCAUG

Variants of: B1
Assay: polymerase ribozyme fitness, log enrichment relative to wild type (log ratio); higher = more active; in vitro selection for triplet polymerase activity
Outline: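 Mutant libraries were PCR-built and transcribed for each subunit of a heterodimeric triplet polymerase ribozyme and selected for one round in triplicate at −7 °C, frozen, before gel excision of extended constructs and streptavidin-bead capture. Input and output libraries were Illumina-sequenced, keeping genotypes with ≥10 input reads and ≥1 read per output. Fitness is a logarithmic ratio of genotype to wild-type enrichment, in base 2, using inverse-variance-weighted replicate averages.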

| Variant | polymerase ribozyme fitness (log ratio) |
| --- | --- |
| A3C G50U | -1.07 |
| A3C C69A C87G U146C C149U U151G | ≤ -4.2 |
| A3C U13G G62A A66C U145A | ≤ -4.2 |
| A3U A47C C93U C118U | -2.05 |
| A3G C10G A41G C76A U145A | ≤ -4.2 |
| A3G U44G C57A G59U G68C C87G | ≤ -4.2 |
| A3U C10U U61A G65A A66C | ≤ -4.2 |
| A3G A20C U53A G81C A121G | -1.59 |
| A3G U4G U15A C27U C38A C57G G92A A119U | ≤ -4.2 |
| A3C U44G U56A G84C | ≤ -4.2 |
| A3U A30G U104C C105A C114G A115G A122G C129A | ≤ -4.2 |
| A3G G84C | -1.98 |
| A3U A17G A49C C93A U104A A119C C132U G141C U145G | ≤ -4.2 |
| A3U C14G A30U U55G C95U | ≤ -4.2 |
| A3G C38A G124C U134G G136U U146G | ≤ -4.2 |
| A3C U4G G58C C93U C149U | -3.55 |
| A3U C35U C54A C85G | ≤ -4.2 |
| A3G C27U G86A | -3.94 |
| A3U C38A C85G C99U G124A | -3.77 |
| A3G A29G U82A | ≤ -4.2 |
| A3C C35U C75A C129G | ≤ -4.2 |
| A3U A20C A26U C57G C108U | ≤ -4.2 |
| A3C C14A A26G G50C A91G G117A C125U G140A G143C | ≤ -4.2 |
| A3C U6G G46C C75A C79A G86A C103G G126U | ≤ -4.2 |

| Variant | polymerase ribozyme fitness (log ratio) |
| --- | --- |
| A3U A91C | -3.34 |
| A3G C5G G84A G88A | -3.09 |
| A3C A20C C38U A41C U53A G71A C93A G94U G126C | ≤ -4.2 |
| A3G C8U G25C U45G U55G G81C C95U C114U G117U A120G A122G | ≤ -4.2 |
| A3C C36U G83A | -3.09 |
| A3C U6A C35A C95U U102C C103G G143U | ≤ -4.2 |
| A3U C14G G50C C85U G88A | ≤ -4.2 |
| A3G A29G A39G G86U C99G | ≤ -4.2 |
| A3C U4G A49U U61C G70A G92U | ≤ -4.2 |
| A3U A21U G50U G58A U77A G100U A137G | ≤ -4.2 |
| A3G U82G C96U U148A | -4.17 |
| A3C A21C C35A C85U C125U | ≤ -4.2 |
| A3C G48U C69U | -2.88 |
| A3U C5G U7C A30C C36U U55A A60G C75U C87G U101A A119C C123G G143U | ≤ -4.2 |
| A3C U7G C87U C93G A98G G100U A120C U148A U151G | ≤ -4.2 |
| A3U C18U A20C A30C A41C C69U G94A C103G | ≤ -4.2 |
| A3C A28G A37U A52U G83U | ≤ -4.2 |
| A3C U90A | -4.17 |
| A3U A19U C57U G62U C69U C85U C99G U130C G136U U146G | ≤ -4.2 |
| A3U C36A G42C C87A A89G G100C | ≤ -4.2 |
| A3G U56C C87A G92C | -2.12 |
| A3G C87U | -0.743 |
| A3U C5A A30U A39U A49U C99U G124A | ≤ -4.2 |
| A3U A16U C54U U55A C85U A98C C99U C129G G152U | ≤ -4.2 |

| Variant | polymerase ribozyme fitness (log ratio) |
| --- | --- |
| A3G A91U | ≤ -4.2 |
| A3C A16U C54A C87U U104G G141C | ≤ -4.2 |
| A3G A12G A29G C38U G42C G86U A138C | ≤ -4.2 |
| A3U C8U C14G A19C U33A A52C G70A C79G C87G G152U | ≤ -4.2 |
| A3C A41G G84A G126C | -0.499 |
| A3C G46C A49G G92A U104G A113U G124A A142U | ≤ -4.2 |
| A3G G11C C87A A91U A137G | ≤ -4.2 |
| A3U C8U C96U | -1.89 |
| A3G C18A C93G C123U C131U | -1.32 |
| A3C C85A U130A C132G | ≤ -4.2 |
| A3C A60G | -0.264 |
| A3G C93A C108U C125G A142G U145G U146A | ≤ -4.2 |
| A3U C8A C18U A47C A49U C93U U102G A107G G133U | ≤ -4.2 |
| A3C U4A U56G C57U C132A | -4.08 |
| A3G A26U C72U | ≤ -4.2 |
| A3U A28C U55G U56G C63G G86C A91C | ≤ -4.2 |
| A3C C57U U82G G84A U90A C93G C149U | ≤ -4.2 |
| A3C G25A A40U G71A C85U C96U A119C A121G G140C | ≤ -4.2 |
| A3C A12G G25C A52C C93U C116A | -3.91 |
| A3U A73G G86U C129A A137G | ≤ -4.2 |
| A3C C87G | -3.29 |
| A3C A16U C93G C118U U130G | ≤ -4.2 |
| A3G A12C G62U G70C C79G G81A G84A A147C | ≤ -4.2 |
| A3G U13G U144C | 0.104 |

| Variant | polymerase ribozyme fitness (log ratio) |
| --- | --- |
| A3C U4G A21C C38G A41C G68A G81A C85U C95U C116G | ≤ -4.2 |
| A3C C36G A60C G83U C118G U151C | ≤ -4.2 |
| A3U A28C G84A G117U A119U G124U | ≤ -4.2 |
| A3C C85U C96U | -0.556 |
| A3C A12U U56A C93A A98U A107G C129U | ≤ -4.2 |
| A3U A16C A52U C57U C76U G86U | ≤ -4.2 |
| A3U C35G C93U G100A C105G G133C | ≤ -4.2 |
| A3G C8G A30G G48C A64C C87G A137G | ≤ -4.2 |
| A3U A22C C87A G92U | -0.18 |
| A3C C10G G11U A47U G48A G58C U82G G83A A137U | ≤ -4.2 |
| A3G C63U A73G G86U U135A | -3.75 |
| A3G A16G A24C A49G G80C | ≤ -4.2 |
| A3C A52C U55A C57A G81A G94C | -4.03 |
| A3G A16U U53A C75U G92U | -3.54 |
| A3C A24G A73U C93A | ≤ -4.2 |
| A3G A17U A60U | -1.21 |
| A3C C32U G59A | -3.67 |
| A3G U13C A98U A107U | -4 |
| A3G C18U C27G A28U U78A | ≤ -4.2 |
| G1U | 0.22 |
| A3C U4A U6C U15C A17G C38U C54U C72U G86U U127G | ≤ -4.2 |
| A3G U6G U90G C103U G141C | ≤ -4.2 |
| A3C C14G A39C G81U C96U C105U A121U U134C U135C U148C | ≤ -4.2 |
| A3U A29C U61C | ≤ -4.2 |

| Variant | polymerase ribozyme fitness (log ratio) |
| --- | --- |
| A3U A29G A49C G92A G124U G140A | ≤ -4.2 |
| A3C C18G U56A C57A C93G U146G | ≤ -4.2 |
| A3G C93U | -1.78 |
| A3U A17C A89U C132U | -1.09 |
| A3G G46C C54A U146C | -3.68 |
| A3U A17C G94C | -0.825 |
| A3G A41U C96U | -1.56 |
| A3C C14U A16G G59A C87A | ≤ -4.2 |
| A3U C36U | -2.21 |
| A3C A28U U77A C93U C129A U148G | ≤ -4.2 |
| A3G U9G A16G A21C G84A G133C G141A | ≤ -4.2 |
| A3C U56G C57G C116G | -2.89 |
| A3G U4A U53C G59U U61A G71C C85A | ≤ -4.2 |
| A3C G88C | -4.14 |
| A3U A16C A60G C87A U102G C108G U127A U145G | ≤ -4.2 |
| A3G A147U | 1.09 |
| A3C U6A | -0.461 |
| A3G A23C C75A G88A C99G C108U G143C | ≤ -4.2 |
| A3C U56G C93U C114G U134A U148C | ≤ -4.2 |
| A3G C36G U77C | ≤ -4.2 |
| A3G G84A A98U | -1.36 |
| A3G C85U | -1.05 |
| A3G C85G | -3.16 |
| A3U A52C G86U A119U G141U | -3.78 |

| Variant | polymerase ribozyme fitness (log ratio) |
| --- | --- |
| A3G U4G C32U U56A G74A G81A A120G | -0.184 |
| A3U A26G U61A G92A | ≤ -4.2 |
| A3G A49C C51U G59C C95U C131G | ≤ -4.2 |
| A3U A20U G50C | ≤ -4.2 |
| A3U A37U C96U C118G | -3.38 |
| A3U A28C C63U C85U A142C G152U | -3.91 |
| A3G A113G C118G | -3.65 |
| A3G A17C G143C | -2.6 |
| A3C C10G C57A G83A | -3.78 |
| A3U C5G A19U C36U G83A | -3.1 |
| A3U A49U U55C A91U | ≤ -4.2 |
| A3G G94C | -1.07 |
| A3G A23U C85A A106U G133U G143U | ≤ -4.2 |
| A3U A47C C57A | -0.307 |
| A3G A12C A39G A97U G133A G143C | ≤ -4.2 |
| A3U A52G C96G C131U | -0.0465 |
| A3C U13G A23U C87U A91U C96U | ≤ -4.2 |
| A3C C10G A49C C54U A60U A91C G100A G136U U139C | ≤ -4.2 |
| A3G A39U G59C G83U | -3.56 |
| A3C A24G C36U A41U C72U C85A A91U U151A G152C | ≤ -4.2 |
| A3G A30G C38A G83A U101G | ≤ -4.2 |
| A3C C8U C18U A49G C87A | ≤ -4.2 |
| A3U C8G | ≤ -4.2 |
| A3U C8U | -0.611 |

| Variant | polymerase ribozyme fitness (log ratio) |
| --- | --- |
| A3U C36U U56G A60C U61G C79U C93U C99U G112C U144A A150C | ≤ -4.2 |
| A3C G58A C87U | -0.495 |
| A3U C10U U56A C96U C116U G143A | -3.56 |
| A3G G71U C96A A107G C116U C125G | ≤ -4.2 |
| A3G C10A A12G G59U A66G C72G C85U | ≤ -4.2 |
| A3C C14G A52C C93U G141U | -4.16 |
| A3C A97U U135G G140C | ≤ -4.2 |
| A3C G58C C63U C95G | -1.68 |
| A3G A21C A60G C76A C85G | -0.977 |
| A3C C85U C95U C114U G133C | ≤ -4.2 |
| A3C U45A G67U G71C G80C C95A C103A | ≤ -4.2 |
| A3G A17U C85A A106G A107U C118G U134A A142G C149U | ≤ -4.2 |
| A3C C27U C35G C57A G84A C87U | ≤ -4.2 |
| A3C C5U C43U G70C G84A A106U A113C | ≤ -4.2 |
| A3G A52U C54U U77G A121G A122G A137G | ≤ -4.2 |
| A3U A30G C35G A39U G59A A60C C87U U134A | ≤ -4.2 |
| A3U A12G C87G | -4.02 |
| A3U A21C C69A C76A G86A A89G A122G | ≤ -4.2 |
| A3U A23U C96U | ≤ -4.2 |
| A3U C32G A49U | ≤ -4.2 |
| A3G U13G A21U A40U C69A C79G G80A G83U C85U G86U G136C | ≤ -4.2 |
| A3G A20C A29U A41G C54U C87U C95U U135G | ≤ -4.2 |
| A3U C5A U15C A19G C57G C118G G136A G141C A142C | ≤ -4.2 |
